T1: freshly dissolved FP13 K157G
T1 chain: KRLEVDIDIGIRS

T2: human fibrin α-chain (148-160) amyloid fragment with Lys157Gly mutation (FP13), aggregated
T2 chain: KRLEVDIDIGIRS

T3: non-amyloid fragment FP10 of human fibrin α-chain (148-157)
T3 chain: KRLEVDIDIK

T4: recombinant human β2-glycoprotein I, P02749
T4 chain: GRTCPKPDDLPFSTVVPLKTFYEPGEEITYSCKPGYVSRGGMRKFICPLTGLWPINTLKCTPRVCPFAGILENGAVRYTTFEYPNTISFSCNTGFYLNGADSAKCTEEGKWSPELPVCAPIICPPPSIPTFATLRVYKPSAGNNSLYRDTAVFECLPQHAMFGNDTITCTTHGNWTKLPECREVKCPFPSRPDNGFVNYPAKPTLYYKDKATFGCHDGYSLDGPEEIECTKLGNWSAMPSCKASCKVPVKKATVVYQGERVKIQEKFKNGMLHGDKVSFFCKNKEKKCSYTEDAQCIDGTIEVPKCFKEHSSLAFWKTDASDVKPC

T5: β2-glycoprotein I purified from fresh human plasma, P02749
T5 chain: T4 chain

B1: factor XII purified from human plasma (protein)
chain: IPPWEAPKEHKYKAEEHTVVLTVTGEPCHFPFQYHRQLYHKCTHKGRPGPQPWCATTPNFDQDQRWGYCLEPKKVKDHCSKHSPCQKGGTCVNMPSGPHCLCPQHLTGNHCQKEKCFEPQLLRFFHKNEIWYRTEQAAVARCQCKGPDAHCQRLASQACRTNPCLHGGRCLEVEGHRLCHCPVGYTGAFCDVDTKASCYDGRGLSYRGLARTTLSGAPCQPWASEATYRNVTAEQARNWGLGGHAFCRNPDNDIRPWCFVLNRDRLSWEYCDLAQCQTPTQAAPPTPVSPRLHVPLMPAQPAPPKPQPTTRTPPQSQTPGALPAKREQPPSLTRNGPLSCGQRLRKSLSSMTRVVGGLVALRGAHPYIAALYWGHSFCAGSLIAPCWVLTAAHCLQDRPAPEDLTVVLGQERRNHSCEPCQTLAVRSYRLHEAFSPVSYQHDLALLRLQEDADGSCALLSPYVQPVCLPSGAARPSETTLCQVAGWGHQFEGAEEYASFLQEAQVPFLSLERCSAPDVHGSSILPGMLCAGFLEGGTDACQGDSGGPLVCEDQAAERRLTLQGIISWGSGCGDRNKPGVYTDVAYYLAWIREHTVS
B2: tissue-type plasminogen activator (tPA) (protein)
chain: SYQVICRDEKTQMIYQQHQSWLRPVLRSNRVEYCWCNSGRAQCHSVPVKSCSEPRCFNGGTCQQALYFSDFVCQCPEGFAGKCCEIDTRATCYEDQGISYRGTWSTAESGAECTNWNSSALAQKPYSGRRPDAIRLGLGNHNYCRNPDRDSKPWCYVFKAGKYSSEFCSTPACSEGNSDCYFGNGSAYRGTHSLTESGASCLPWNSMILIGKVYTAQNPSAQALGLGKHNYCRNPDGDAKPWCHVLKNRRLTWEYCDVPSCSTCGLRQYSQPQFRIKGGLFADIASHPWQAAIFAKHRRSPGERFLCGGILISSCWILSAAHCFQERFPPHHLTVILGRTYRVVPGEEEQKFEVEKYIVHKEFDDDTYDNDIALLQLKSDSSRCAQESSVVRTVCLPPADLQLPDWTECELSGYGKHEALSPFYSERLKEAHVRLYPSSRCTSQHLLNRTVTDNMLCAGDTRSGGPQANLHDACQGDSGGPLVCLNDGRMTLVGIISWGLGCGQKDVPGVYTKVTNYLDWIRDNMRP

Assays:
[1] = molecular target: T1, freshly dissolved FP13 K157G
[2] = molecular target: glycated human haemoglobin (Hb-AGE), P69905
Chain of glycated human haemoglobin (Hb-AGE), P69905 (P69905 2-142, chain 1 of 2): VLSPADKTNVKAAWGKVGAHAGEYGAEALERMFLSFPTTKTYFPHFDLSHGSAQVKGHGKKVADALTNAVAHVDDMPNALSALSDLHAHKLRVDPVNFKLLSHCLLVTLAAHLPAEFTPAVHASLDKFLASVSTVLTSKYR
Chain of glycated human haemoglobin (Hb-AGE), P69905 (chain, as listed by the source, chain 2 of 2): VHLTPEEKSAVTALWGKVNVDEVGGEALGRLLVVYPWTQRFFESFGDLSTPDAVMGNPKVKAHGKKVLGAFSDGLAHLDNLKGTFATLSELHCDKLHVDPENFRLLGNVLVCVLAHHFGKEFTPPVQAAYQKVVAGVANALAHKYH

[3] = molecular target: human amyloid-β (Aβ) (1-40) Dutch type
[4] = molecular target: T2, human fibrin α-chain (148-160) amyloid …
[5] = molecular target: native haemoglobin (Hb), P69905
Chain of native haemoglobin (Hb), P69905 (P69905 2-142, chain 1 of 2): as the sequence (P69905 2-142, chain 1 of 2) above
Chain of native haemoglobin (Hb), P69905 (chain, as listed by the source, chain 2 of 2): as the sequence (chain, as listed by the source, chain 2 of 2) above

[6] = molecular target: T3, non-amyloid fragment FP10 of human …
[7] = molecular target: T4, recombinant human β2-glycoprotein I, …
[8] = molecular target: T5, β2-glycoprotein I purified from fresh …

| Protein | activation of factor XII (conversion of Chromozym PK by kallikrein) (LAM12) | activation of factor XII (conversion of Chromozym PK by kallikrein) (TTR11) | factor XII auto-activation (substrate S-2222) [1] | factor XII auto-activation (substrate S-2222) [2] | activation of factor XII (conversion of Chromozym PK by kallikrein) [3] | factor XII auto-activation (substrate S-2222) [3] | activation of factor XII (conversion of Chromozym PK by kallikrein) [4] | factor XII auto-activation (substrate S-2222) [4] | activation of factor XII (conversion of Chromozym PK by kallikrein) (mIAPP) | factor XII auto-activation (substrate S-2222) [5] | activation of factor XII (conversion of Chromozym PK by kallikrein) [6] | tPA-mediated conversion of Plg to Pls (substrate S-2251) [7] | tPA-mediated conversion of Plg to Pls (substrate S-2251) [8] |
| --- | --- | --- | --- | --- | --- | --- | --- | --- | --- | --- | --- | --- | --- |
| B1 | LAM12 and TTR11 stimulate factor XII activation, to a similar extent as kaolin | LAM12 and TTR11 stimulate factor XII activation, to a similar extent as kaolin | did not or hardly auto-activate factor XII (not shown) | All three amyloid-like aggregates are able to induce factor XII auto-activation | amyloid-like peptide aggregates of FP13 and Aβ stimulate the activation of factor XII | All three amyloid-like aggregates are able to induce factor XII auto-activation; the potency of the Aβ(1-40) E22Q was somewhat lower | amyloid-like peptide aggregates of FP13 and Aβ stimulate the activation of factor XII | All three amyloid-like aggregates are able to induce factor XII auto-activation | non-amyloid controls FP10 and mIAPP do not activate factor XII | did not or hardly auto-activate factor XII (not shown) | non-amyloid controls FP10 and mIAPP do not activate factor XII | – | – |
| B2 | – | – | – | – | – | – | – | – | – | – | – | Recombinant β2GPI, but not β2GPI purified from fresh plasma stimulate tPA-mediated conversion of Plg to Pls | but not β2GPI purified from fresh plasma |

— patent US20080207488
